What was measured:
[1] = molecular target: HLA-DR4 (α1*01:01; β1*04:01) (human); experiment: ProImmune REVEAL class II MHC-peptide binding assay
[2] = molecular target: HLA-DR7 (α1*01:01; β1*07:01) (human); experiment: as above

| Binder | binding score (% of positive control peptide signal) [1] | binding score (% of positive control peptide signal) [2] |
| --- | --- | --- |
| VGPLTVNEKRRLKLIMPARFYPNVTKYLPLDKGIK (modifications not checked) [NP113] | 33.5% | 99.2% |
| PEHVVNHYFQTRHYLHTLWKAGILYKRETTRSASF (modifications not checked) [NP151] | 74.4% | 19.4% |

Reference: patent US20160106830A1
